B1: INTS4 (parent)
chain: IRLVDDAFGKICHMVSDGSWVVRV

Variants of: B1
Experiment: protein stability index of a GFP-peptide fusion (GPS, HEK-293T) (PSI 1-6); higher = more stable
Conditions: c terminus: a fixed tail appended
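Note: lentivirally expressed fusions sorted by FACS into six bins by GFP to DsRed ratio, PSI derived from sequencing read proportions per bin multiplied by bin number.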

In order of falling protein stability index:
1. IRLVDDAFGKICHNVSDGSWVVRV [M14N]  5.13
2. IRLVDDAFGKIKHMVSDGSWVVRV [C12K]  4.92
3. IFLVDDAFGKICHMVSDGSWVVRV [R2F]  4.79
4. IVLVDDAFGKICHMVSDGSWVVRV [R2V]  4.66
5. IRLVDDAFGKICHVVSDGSWVVRV [M14V]  4.58
6. IRLVDDAFGKICHDVSDGSWVVRV [M14D]  4.2
7. IRLVDDAFGKIRHMVSDGSWVVRV [C12R]  4.2
8. IRLVDDAFGKICHMVSDGSWVVAV [R23A]  4.14
9. IRLVDDAFGKICHMASDGSWVVRV [V15A]  3.99
10. IRLVDDAFGKICHMVSDGVWVVRV [S19V]  3.96
11. IRLVDDAFGKICHMVSHGSWVVRV [D17H]  3.91
12. IRLVDDAFGKICHMVSDGSWVVCV [R23C]  3.87
13. IRLVDDAFGKICHMVSDGIWVVRV [S19I]  3.87
14. IRLVDDAFGKICHFVSDGSWVVRV [M14F]  3.85
15. IRLVDDAFGKICHMVSDGHWVVRV [S19H]  3.8
16. IRLVDDAFPKICHMVSDGSWVVRV [G9P]  3.75
17. IRLVDDAFGKICHMVSAGSWVVRV [D17A]  3.62
18. IRLVDDAFGKIDHMVSDGSWVVRV [C12D]  3.58
19. IRLVDDAFGKICHMGSDGSWVVRV [V15G]  3.51
20. IRLVDDAFGKICKMVSDGSWVVRV [H13K]  3.46
21. IRLVDDAFGKICHMVSDGQWVVRV [S19Q]  3.45
22. IRLVDDAFGKICHMVSDGSAVVRV [W20A]  3.43
23. IRLVDDAFGKICHMVSDGPWVVRV [S19P]  3.43
24. IRLVDDWFGKICHMVSDGSWVVRV [A7W]  3.37
25. IRLVDDAFFKICHMVSDGSWVVRV [G9F]  3.37
26. IRLVDDAFGKICHMNSDGSWVVRV [V15N]  3.28
27. IRLVDDAFGKICHMVSDGSWVVIV [R23I]  3.28
28. IRLVDDAFGKICHMVSDGTWVVRV [S19T]  3.28
29. IRLVDDAFGKICHMVSDGSQVVRV [W20Q]  3.26
30. IRLVDDAFGKICHHVSDGSWVVRV [M14H]  3.19
31. IRLVDDAFGKICHMVSVGSWVVRV [D17V]  3.15
32. IRLVDDAFGKICDMVSDGSWVVRV [H13D]  3.12
33. IRLVDDAFYKICHMVSDGSWVVRV [G9Y]  3.11
34. IRLVDDAFGKICHMVSDGSWHVRV [V21H]  3.08
35. IRLVDDAFGKICHMVSDGSVVVRV [W20V]  3.08
36. IRLVDDAFGKICHMVSDGSWCVRV [V21C]  3.07
37. IRLVDDAFGKICHMQSDGSWVVRV [V15Q]  3.06
38. IRLVDDAFGKIWHMVSDGSWVVRV [C12W]  3
39. IRLVDDAFGKICGMVSDGSWVVRV [H13G]  2.97
40. IRLVDDAFGLICHMVSDGSWVVRV [K10L]  2.96
41. IRLVDDAFGKICHMVSDGSWVVHV [R23H]  2.94
42. IRLVDDAFGKITHMVSDGSWVVRV [C12T]  2.91
43. IRLVDDAFGKICHMVSDGAWVVRV [S19A]  2.89
44. IRLVDDAFGKICHMVSDGSWRVRV [V21R]  2.88
45. IRLVDDAFGKICHMISDGSWVVRV [V15I]  2.87
46. IRLVDDAFGKICHMVSDGSYVVRV [W20Y]  2.87
47. IRLVDDAFGKIQHMVSDGSWVVRV [C12Q]  2.82
48. IRLVDDAFGKICHMVSLGSWVVRV [D17L]  2.79
49. IRLVDDAFGKICHMVSDGSRVVRV [W20R]  2.79
50. IMLVDDAFGKICHMVSDGSWVVRV [R2M]  2.78
51. IRLVDDAFGKICHMVSDGFWVVRV [S19F]  2.73
52. IRLVDDAFGKICPMVSDGSWVVRV [H13P]  2.63
53. IRLVDDAFGKICHIVSDGSWVVRV [M14I]  2.62
54. IRLVDDAFVKICHMVSDGSWVVRV [G9V]  2.6
55. IRLVDDAFGIICHMVSDGSWVVRV [K10I]  2.57
56. IRLVDDAFGKICHMVSDGSFVVRV [W20F]  2.47
57. IRLVDDAFGKICHMVSNGSWVVRV [D17N]  2.41
58. IRLVDDAFGFICHMVSDGSWVVRV [K10F]  2.4
59. IRLVDDAFGKICHMVSDGSWVVSV [R23S]  2.39
60. IRLVDDAFGKICHMVSDGMWVVRV [S19M]  2.38
61. IRLVDDAFGKICHMVSEGSWVVRV [D17E]  2.35
62. IRLVDDAFGKICHMVSDGSWVVGV [R23G]  2.32
63. IRLVDDAFGPICHMVSDGSWVVRV [K10P]  2.29
64. IRLVDDAFGGICHMVSDGSWVVRV [K10G]  2.29
65. IRLVDDAFGKICHMVSDGSWLVRV [V21L]  2.25
66. IRLVDDAFGKICHMHSDGSWVVRV [V15H]  2.22
67. IRLVDDAFGKICHMVSWGSWVVRV [D17W]  2.22
68. IRLVDDAFGKICHMVSDGSWTVRV [V21T]  2.18
69. IRLVDDAFRKICHMVSDGSWVVRV [G9R]  2.17
70. IRLVDDAFGKICHMVSCGSWVVRV [D17C]  2.15
71. IRLVDDAFGKICHMVSDGSWVVDV [R23D]  2.15
72. IRLVDDAFGKICHMVSDGSWVVEV [R23E]  2.13
73. IRLVDDAFGKICHMKSDGSWVVRV [V15K]  2.06
74. IRLVDDAFGKICHMDSDGSWVVRV [V15D]  2.06
75. IRLVDDAFGKICHMVSGGSWVVRV [D17G]  2.05
76. IRLVDDAFGKICHMVSRGSWVVRV [D17R]  2.02
77. IRLVDDAFGKICHMVSDGSWVVNV [R23N]  2.02
78. IRLVDDAFGKICHMVSDGSWEVRV [V21E]  2
79. IRLVDDAFGKICHMVSMGSWVVRV [D17M]  1.92
80. IRLVDDAFGKICHMVSDGSWGVRV [V21G]  1.89
81. IRLVDDAFGKICHMVSDGSWVVTV [R23T]  1.88
82. IRLVDDAFKKICHMVSDGSWVVRV [G9K]  1.85
83. IRLVDDAFGKICHMSSDGSWVVRV [V15S]  1.84
84. IRLVDDAFGNICHMVSDGSWVVRV [K10N]  1.78
85. IRLVDDAFGKICHMVSDGSGVVRV [W20G]  1.7
86. IRLVDDAFGKICHMVSDGSDVVRV [W20D]  1.61
87. IRLVDDAFGKICHMVSDGGWVVRV [S19G]  1.58
88. IRLVDDAFGKICHQVSDGSWVVRV [M14Q]  1.49
89. IRLVDDAFGKICHMVSKGSWVVRV [D17K]  1.48
90. IRLVDDAFGKICHMVSDGSKVVRV [W20K]  1.36
91. IRLVDDAFGKICSMVSDGSWVVRV [H13S]  1.3
92. IRLVDDAFGKICHMVSFGSWVVRV [D17F]  1.24
93. IRLVDDAFEKICHMVSDGSWVVRV [G9E]  1.14
94. IRLVDDAFGKICHMVSDGWWVVRV [S19W]  1.01

— the supplement of paper PMC10567573
